T1: alpha-s1 casein from Bos taurus
T1 chain: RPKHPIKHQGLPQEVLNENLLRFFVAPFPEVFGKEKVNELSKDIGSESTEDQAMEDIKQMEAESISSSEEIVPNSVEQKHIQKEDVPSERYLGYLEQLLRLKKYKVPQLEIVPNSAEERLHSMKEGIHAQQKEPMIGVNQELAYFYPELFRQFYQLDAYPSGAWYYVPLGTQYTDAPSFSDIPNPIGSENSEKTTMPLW


Target: T1, alpha-s1 casein from Bos taurus

| Protein | hydrolysis of the first cut in alpha s1-casein | small, 6 hours, 11° C. [Volume] | small, 24 hours, 11° C. [Volume] | αs1-I CN, 6 hours, 11° C. [Volume] | αs1-I CN, 24 hours, 11° C. [Volume] | αs1 CN, 6 hours, 11° C. [Volume] | αs1 CN, 24 hours, 11° C. [Volume] | (αSN1-1)/(αSN1), 6 hours, 11° C. | (αSN1-1)/(αSN1), 24 hours, 11° C. |
| --- | --- | --- | --- | --- | --- | --- | --- | --- | --- |
| bovine chymosin B variant #62 (V223Q) (protein) GEVASVPLTNYLDSQYFGKIYLGTPPQEFTVLFDTGSSDFWVPSIYCKSNACKNHQRFDPRKSSTFQNLGKPLSIHYGTGSMQGILGYDTVTVSNIVDIQQTVGLSTQEPGDVFTYAEFDGILGMAYPSLASEYSIPVFDNMMNRHLVAQDLFSVYMDRNGQESMLTLGAIDPSYYTGSLHWVPVTVQQYWQFTVDSVTISGVVVACEGGCQAILDTGTSKLQGPSSDILNIQQAIGATQNQYGEFDIDCDNLSYMPTVVFEINGKMYPLTPSAYTSQDQGFCTSGFQSENHSQKWILGDVFIREYYSVFDRANNLVGLAKAI | variant 62 shows slow hydrolysis of the first cut in alpha s1-casein, and therefore slow accumulation of alpha s1-I casein | 0 | 4.1e+06 | 1.29e+07 | 1.99e+07 | 2.67e+07 | 1.34e+07 |  |  |
| camel chymosin variant #136 (F223C) (protein) GKVAREPLTSYLDSQYFGKIYIGTPPQEFTVVFDTGSSDLWVPSIYCKSNVCKNHHRFDPRKSSTFRNLGKPLSIHYGTGSMEGFLGYDTVTVSNIVDPNQTVGLSTEQPGEVFTYSEFDGILGLAYPSLASEYSVPVFDNMMDRHLVARDLFSVYMDRNGQGSMLTLGAIDPSYYTGSLHWVPVTLQQYWQFTVDSVTINGVAVACVGGCQAILDTGTSVLCGPSSDILKIQMAIGATENRYGEFDVNCGNLRSMPTVVFEINGRDYPLSPSAYTSKDQGFCTSGFQGDNNSELWILGDVFIREYYSVFDRANNRVGLAKAI |  |  |  | 2.06e+07 | 2.03e+07 | 2.86e+07 | 1.06e+07 | 0.7 | 1.9 |
| camel chymosin variant #137 (F223D) (protein) GKVAREPLTSYLDSQYFGKIYIGTPPQEFTVVFDTGSSDLWVPSIYCKSNVCKNHHRFDPRKSSTFRNLGKPLSIHYGTGSMEGFLGYDTVTVSNIVDPNQTVGLSTEQPGEVFTYSEFDGILGLAYPSLASEYSVPVFDNMMDRHLVARDLFSVYMDRNGQGSMLTLGAIDPSYYTGSLHWVPVTLQQYWQFTVDSVTINGVAVACVGGCQAILDTGTSVLDGPSSDILKIQMAIGATENRYGEFDVNCGNLRSMPTVVFEINGRDYPLSPSAYTSKDQGFCTSGFQGDNNSELWILGDVFIREYYSVFDRANNRVGLAKAI |  |  |  | 2.26e+07 | 2.55e+07 | 3.14e+07 | 1.1e+07 | 0.7 | 2.3 |

— patent publication US20150140169
